The subject of experiment [1] is thrombin catalyzed release of fibrinopeptides A and B. In words: Release of fibrinopeptides by thrombin, HPLC. The format is biochemical. The conditions noted are these: for Percentage of FpB released: Fg 0.3 μM. The procedure: Release of Fibrinopeptides by Thrombin—The thrombin catalyzed release of fibrinopeptides A and B was analyzed as follows. Fg solutions were diluted to 0.3 μM in 20 mM HEPES (pH 7.4), 150 mM NaCl, 5 mM ε-aminocapriotic acid, and 1.0 mM CaCl2. ε-aminocapriotic acid was included to inhibit any possible plasmin contaminant activity. […] The tubes were mixed by inversion and 500 μl aliquots were removed for the 15 and 60 min time points. The aliquots were incubated at room temperature and then immersed in boiling water for 15 min to halt the reaction. The aliquots were stored on ice for the remainder of the time course. At the end of the reaction the samples were centrifuged for 15 min at 4° C., and the supernatants were removed and stored at −20° C. overnight prior to analysis by high performance liquid chromatography.
The fibrinopeptides released were monitored by reverse phase HPLC essentially as described (19). The samples were loaded onto a Waters Delta-Pak C18 column equilibrated with buffer A (25 mM NaH2PO4/Na2HPO4, pH 6.0). Fibrinopeptides were eluted with a linear gradient from 100% buffer A to 40% buffer B (Buffer A with 50% acetonitrile) and monitored by absorbance at 205 nm. Fibrinopeptide peak area was determined using the software Waters Millennium^32.

The target in the next experiment is T1, Fg Bβ chain (Homo sapiens, UniProt P02675).
T1 construct: recognized the mature recombinant Bβ chain (residues 1-462); made in house; host or cells: E. coli
T1 sequence (P02675 31-491): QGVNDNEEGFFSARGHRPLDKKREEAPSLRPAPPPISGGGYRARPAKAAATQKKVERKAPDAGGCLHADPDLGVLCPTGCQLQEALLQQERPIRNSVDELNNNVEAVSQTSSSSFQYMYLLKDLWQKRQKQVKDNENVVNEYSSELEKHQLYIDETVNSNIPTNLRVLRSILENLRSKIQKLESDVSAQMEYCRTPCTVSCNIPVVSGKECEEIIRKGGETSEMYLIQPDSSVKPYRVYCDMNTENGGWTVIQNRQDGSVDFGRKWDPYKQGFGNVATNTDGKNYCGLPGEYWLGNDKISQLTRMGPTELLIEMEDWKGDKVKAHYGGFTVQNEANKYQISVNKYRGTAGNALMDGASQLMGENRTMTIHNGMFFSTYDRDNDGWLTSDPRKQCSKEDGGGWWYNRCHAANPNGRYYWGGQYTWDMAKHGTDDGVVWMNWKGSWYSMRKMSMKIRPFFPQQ
The experiment is described as follows: Western ligand blot with biotin labeled rSdrG(50-597). In kind it is binding. The text has this: Construction of Fg Bβ Chain Truncates—An E. coli strain harboring plasmid p668 which contains the cDNA for the Fg Bβ chain was kindly provided by Dr. Susan T. Lord (University of North Carolina, Chapel Hill, N.C.). The 1525 bp fragment from p668 was subcloned into the plasmid pQE30 to produce recombinant mature Bβ chain with a N-terminal His-tag. Additional Bβ chain constructs (FIG. 3A) were made by subcloning into either pQE30 or pGEX-KG (Pharmacia) to produce recombinant proteins with a N-terminal His-tag or Glutathione S-transferase (GST) fusion.
Western Ligand Blot Analysis—Whole E. coli lysates harboring each respective Fg Bβ chain construct were fractionated by SDS-PAGE and the separated proteins were transferred to nitrocellulose membrane with a semi-dry transfer cell (Bio-Rad). The membrane was incubated overnight with 5% (w/v) non-fat dry milk in PBS, pH 7.5 at 4° C. to saturate non-specific binding sites. After blocking, the membrane was washed three times with PBST and then incubated with biotin labeled rSdrG(50-597) (0.5 μM) for 1 h at room temperature. rSdrG(50-597) was biotin labeled using EZ Link-sulfo-NHS-LC biotin (Sigma) according to the manufacturers' instructions. After three more washes with PBST, the blot was incubated with a 1:5000 dilution of streptavidin-AP conjugated for 1 h at room temperature and developed with 5-bromo-4-chloro-3-indolyl phosphate (BCIP) and nitro blue tetrazolium (NBT) (Biorad) in carbonate:bicarbonate buffer (14 mM Na2CO3, 36 mM NaHCO3, 5 mM MgCl2:6H2O, pH 9.8) for ˜15 min at room temperature.

In experiment [2] the test system is thrombin-induced fibrin clot formation. In words: Fg coagulation assay (fibrin clot inhibition). In kind it is biochemical. Conditions: 3.0 μM Fg, 0-6.0 μM protein, 1.0 NIH unit/ml thrombin, OD 405 nm. The procedure: Fg Coagulation Assay—150 μl of a 3.0 μM Fg solution was incubated with 10 μl of rSdrG(50-597) or BSA (1.0-6.0 μM) and 50 μl of thrombin (Sigma) (1.0 NIH unit/ml) in microtiter wells at room temperature. Clot formation was monitored by measuring the increase in optical density (OD) at 405 nm over time and expressed as Vmax (mOD/min). A plate reader (Thermomax microplate reader, SOFTmax software, Molecular Devices) was used to monitor OD. Using the kinetic mode with one wavelength (L1=405 nm), samples were read every 10 sec for 5 min. In this assay, 1.0 NIH unit/ml of thrombin incubated with 3.0 μM Fg produced a fibrin clot in 5 min at room temperature.
rSdrG(50-597) Inhibits Thrombin-Induced Fibrin Clot Formation—In the final stages of the blood coagulation cascade, thrombin cleaves Fg releasing the fibrinopeptides and producing fibrin monomers. These fibrin monomers then polymerize to form a fibrin clot (20). […] To test this hypothesis, we designed a fibrin clot inhibition assay in which 3.0 μM Fg, 0-6.0 μM rSdrG(50-597) and 1.0 NIH unit/ml of thrombin were incubated and the formation of a fibrin clot was monitored by measuring the increase in optical density at 405 nm.

Experiment [3] deals with fibronectin, collagen types I and IV, vitronectin, laminin and thrombospondin. In words: ELISA: ligand specificity on other immobilized ECM proteins. In kind it is binding. The conditions noted are these: data not shown.

These results are taken from patent US6835378B2, “Method and compositions for inhibiting thrombin-induced coagulation” (The Texas A&M University System University, priority 2001, dated 2004).

“Also recorded” adds a separate entry of the source.

B1: rSdrG(50-597): recombinant His-tagged A region (residues 50-597) of SdrG, a fibrinogen-binding MSCRAMM from S. epidermidis (protein)
chain: HHHHHHAEENTVQDVKDSNMDDELSDSNDQSSNEEKNDVINNSQSINTDDDNQIKKEETNSNDAIENRSKDITQSTTNVDENEATFLQKTPQDNTQLKEEVVKEPSSVESSNSSMDTAQQPSHTTINSEASIQTSDNEENSRVSDFANSKIIESNTESNKEENTIEQPNKVREDSITSQPSSYKNIDEKISNQDELLNLPINEYENKVRPLSTTSAQPSSKRVTVNQLAAEQGSNVNHLIKVTDQSITEGYDDSDGIIKAHDAENLIYDVTFEVDDKVKSGDTMTVNIDKNTVPSDLTDSFAIPKIKDNSGEIIATGTYDNTNKQITYTFTDYVDKYENIKAHLKLTSYIDKSKVPNNNTKLDVEYKTALSSVNKTITVEYQKPNENRTANLQSMFTNIDTKNHTVEQTIYINPLRYSAKETNVNISGNGDEGSTIIDDSTIIKVYKVGDNQNLPDSNRIYDYSEYEDVTNDDYAQLGNNNDVNINFGNIDSPYIIKVISKYDPNKDDYTTIQQTVTMQTTINEYTGEFRTASYDNTIAFSTSSGQGQGDLPPE
Take B1: the “FpA release by thrombin” value in experiment [1] was “no apparent interference”. Further, the “FpB release by thrombin” value in experiment [1] (1:1 ratio of rSdrG(50-597) to Fg) is recorded as “significant decrease”; in experiment [1] (5:1 ratio (1.5 μM rSdrG(50-597))), “decrease in the amount of FpB released; also recorded: effectively able to inhibit the release of FpB”. Further, the “Percentage of FpB released” value in experiment [1] (SdrG:Fg 1:1, 15 min) is 65.4%; in experiment [1] (SdrG:Fg 1:1, 60 min), 45.2%; in experiment [1] (SdrG:Fg 2:1, 15 min) it was 13.9%; in experiment [1] (SdrG:Fg 2:1, 60 min) it was 17.4%; in experiment [1] (SdrG:Fg 5:1, 15 min), <0.001%; in experiment [1] (SdrG:Fg 5:1, 60 min), <0.001%. Besides, in the experiment with Fg Bβ chain (0.5 μM biotin labeled protein), the “binding to truncates lacking the N-terminal 25 residues, rβ(25-95) and rβ(25-195)” value is recorded as “failed to bind”. Moreover, the “recognition of recombinant Bβ chain (1-462) and truncates 1-341, 1-220, 1-195, 1-95” value with Fg Bβ chain (0.5 μM biotin labeled protein) is “recognized”. Moreover, in the experiment with Fg Bβ chain (native Fg chains, data not shown), the “recognition of Fg chains” value is “recognized the Bβ chain, but not the Aα or γ chains of Fg”. Also, the fibrin clot formation entry in experiment [2] is “inhibited fibrin clot formation in a concentration dependent manner”; in experiment [2] (listed as SdrG), “inhibit thrombin-induced fibrinogen coagulation”. In addition, in experiment [3], the “binding to other immobilized ECM proteins” value was “failed to bind”.
